Experimental data taken from article PMC9060465 (2022).
Like-named read-outs stand apart in the source and are kept apart here. Where no end group is shown, it is not given here. [ ]: non-standard residue; d: D form. Aib = CC(C)(N)C(=O)O

T1: human GLP-1R expressed in HEK293 cells (human, UniProt P43220 24-463)
T1 chain: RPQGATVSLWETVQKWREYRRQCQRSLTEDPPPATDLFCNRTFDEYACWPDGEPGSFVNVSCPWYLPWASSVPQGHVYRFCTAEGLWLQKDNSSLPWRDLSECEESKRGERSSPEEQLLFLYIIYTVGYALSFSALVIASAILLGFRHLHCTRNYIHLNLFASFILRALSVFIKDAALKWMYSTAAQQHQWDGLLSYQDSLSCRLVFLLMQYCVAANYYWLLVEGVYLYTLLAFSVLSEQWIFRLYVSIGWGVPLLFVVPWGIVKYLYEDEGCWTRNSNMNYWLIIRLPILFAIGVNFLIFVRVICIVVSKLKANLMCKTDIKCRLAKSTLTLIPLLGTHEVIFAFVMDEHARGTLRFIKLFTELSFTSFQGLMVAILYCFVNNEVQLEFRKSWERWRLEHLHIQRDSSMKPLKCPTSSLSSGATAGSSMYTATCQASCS

T2: human GIPR expressed in HEK293 cells (human, UniProt P48546 22-466)
T2 chain: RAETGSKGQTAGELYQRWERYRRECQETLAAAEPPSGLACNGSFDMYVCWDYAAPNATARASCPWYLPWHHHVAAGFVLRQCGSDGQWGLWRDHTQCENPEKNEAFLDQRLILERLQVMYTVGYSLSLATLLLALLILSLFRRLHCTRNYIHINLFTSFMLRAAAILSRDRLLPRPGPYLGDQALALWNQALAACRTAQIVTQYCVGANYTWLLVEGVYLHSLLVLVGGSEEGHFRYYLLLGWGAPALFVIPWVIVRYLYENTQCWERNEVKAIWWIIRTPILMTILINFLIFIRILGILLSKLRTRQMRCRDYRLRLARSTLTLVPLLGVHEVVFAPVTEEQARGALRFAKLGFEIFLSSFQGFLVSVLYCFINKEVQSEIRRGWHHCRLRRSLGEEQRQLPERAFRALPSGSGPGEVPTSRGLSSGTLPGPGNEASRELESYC

T3: isolated extracellular domain (ECD) of human GLP-1R, amino acids 24 to 145 (human, UniProt P43220 24-145)
T3 chain: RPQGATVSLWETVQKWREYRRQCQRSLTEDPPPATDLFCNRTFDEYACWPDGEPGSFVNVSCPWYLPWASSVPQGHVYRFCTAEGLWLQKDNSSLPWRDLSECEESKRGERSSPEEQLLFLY


Columns and labels:
[1] = target: T1, human GLP-1R expressed in HEK293 cells; assay: [125I]GLP-1 competition, cell membranes
[2] = target: T2, human GIPR expressed in HEK293 cells; assay: [125I]GIP competition, cell membranes
[3] = target: T3, isolated extracellular domain (ECD) of …; assay: SPR; kinetic fit
[4] = target: T2, human GIPR expressed in HEK293 cells; assay: [125I]GIP competition, cell membranes
[5] = target: T1, human GLP-1R expressed in HEK293 cells; assay: [125I]GLP-1 competition, cell membranes

| Binder | Ki [1] [nM] | Ki [2] [nM] | Kd [3] [nM] | Ki [4] [nM] | Ki [5] [nM] |
| --- | --- | --- | --- | --- | --- |
| YAEGTFTSDYSI[Aib]LDKIAQKAFVQWLIAGGPSSGAPPPS [tirzepatide analog lacking the lipid moiety (TZP^ΔC20)] | 2.67 | 0.0235 | 70.6 |  |  |
| YAEGTFTSDVSSYLEGQAAKEFIAWLVKGR (not fully specified (C-terminus)) [GLP-1H7Y] |  |  |  | > 128 |  |
| HAEGTFTSDYSI[Aib]LDKIAQKAFVQWLIAGGPSSGAPPPS (not fully specified (residue 2, C-terminus); ends and bridges not checked) |  |  |  | 0.416 | 0.599 |
| YAEGTFTSDYSIALDKIAQKAFVQWLIAGGPSSGAPPPS (not fully specified) [tirzepatide (LY3298176)] |  | 0.087 |  |  |  |
